# B1: 1251_P02_G10 scFv (scFv)
# scFv: EVQLVESGGGLVQPGGSLRLSCAASGFTFSDYYMSWIRQAPGKGLEWVSYISSSGSTIYYADSVKGRFTISRDNAKNSLYLQMNSLRAEDTAVYYCARHSWNDAFDIWGRGTLVTVSSGGGGSGGGGSGGGASDIQMTQSPSSLSASVGDRVTITCRASQSISSHLNWYQQKPGKAPKLLIYAASSLQSGVPSRFSASGSGTDFTLTISSLQPEDFATYYCQQSYSTLLTFGGGTKVEIK
# B2: 1245_P01_G09 scFv (scFv)
# scFv: QVQLQQSGPGLVKPSQTLSLTCAISGDSVSSNSAAWNWIRQSPSRGLEWLGRTYYGSKWYNEYALSVKSRIIINPDTSKNQFSLQLNSVTPEDTAVYYCARDYYYSMDVWGQGTLVTVSSGGGGSGGGGSGGGASDIVMTQSPSTLSASIGDRVTITCRAGQSISTWLAWYQQKPGKAPKLLIYDASSLESGVPLRFSGSGSGTEFTLAISSLQPDDFATYYCQQSYSTPVTFGQGTKVEIK
# B3: 1252_P01_C08 scFv (scFv)
# scFv: EVQLLESGGGLVQPGRSLRLSCAASGFTVSSNYMSWVRQAPGKGLEWVSVIYSGGSTYYADSVKGRFTISRDNSKNTLYLQMNSLRAEDTAVYYCASPIELGAFDIWGQGTLVTVSSGGGGSGGGGSGGGASSYELTQPPSVSVAPGKTARITCGGNNIGSQSVHWYQQKPGQAPMLVIYYDSDRPSGIPERFSGSNSGNTATLTISRVEAGDEADYYCQVWDSSSDHVVFGGGTKLTVL
# B4: 1245_P01_E07 scFv (scFv)
# scFv: QVQLVESGGGLVKPGGSLRLSCAASGFTFSDYYMSWIRQAPGKGLEWVSYISSSGSTIYYADSVKGRFTISRDNAKNSLYLQMNSLRAEDTAVYYCARVDYADAFDIWGQGTLVTVSSGGGGSGGGGSGGGASDIQMTQSPSSLSASVGDRVTIACRAGQSIGTYLNWYQQKPGKAPKLLIYVASSLQSGVPSRFSGSGSGTEFTLTISSLQPEDFATYYCQQSYSTLLTFGRGTKVEIK
# B5: 1245_P02_G04 scFv (scFv)
# scFv: QVQLQQSGPGLVKPSQTLSLTCAISGDSVSSKSAAWNWIRQSPSRGLEWLGRTYYRSKWSTDYAASVKSRITINPDTSKNQLSLQLNSVTPEDTAVYYCARTWSGYVDVWGQGTLVTVSSGGGGSGGGGSGGGASDIQMTQSPPALSASVGDRVTITCRASQDINDWLAWYQHKPGKAPKLLIYDASSLESGVPSRFSGSGSGTEFTLTISSLQPDDFATYYCQQSYSTPQVTFGQGTRLEIK
# B6: 1139_P01_E04 scFv (scFv)
# scFv: QVQLQQSGPGLVKPSQTLSLTCAISGDSVSSNSAAWNWIRQSPSRGLEWLGRTYYRSKWYNDYAVSVRSRITINPDTSKNQFSLQLNSVTPEDTAVYYCARSWNDAFDIWGQGTTVTVSSGGGGSGGGGSGGGASDIVMTQSPSTLSASIGDRVTITCRAGQSISTWLAWYQQKPGKAPKLLIYDASSLESGVPLRFSGSGSGTDFTLTISSLQPEDFATYYCQQSYSTPLTFGGGTKVEIK
# B7: 1141_P01_E01 scFv (scFv)
# scFv: QVQLVQSGAEVKKPGESLKISCKGSGYSFTSYWIGWVRQMPGKGLEWMGIIYPGDSDTRYSPSFQGQVTISADKSISTAYLQWSSLKASDTAMYYCARHQVDTRTADYWGQGTLVTVSSGGGGSGGGGSGGGASQSALTQPASVSGSPGQSVTISCTGTRSDVGGYNYVSWYQHHPGKAPKLMIYEVSNRPSGVSNRFSGSKSGNTASLTISGLQAEDEADYYCSSYTSTSTLVFGGGTKLTVL
# B8: 1251_P02_C05 scFv (scFv)
# scFv: EVQLLESGGGLVQPGGSLRLSCAASGFTFSSYAMSWVRQAPGKGLEWVSAISGGGGTTYSSDSVKGRFTISRDNSKNTLYLQMNSLRAEDTAVYYCARDSGVAFDIWGQGTLVTVSSGGGGSGGGGSGGGASDIQMTQSPSFLSASVGDRVTITCRASQNIRTWLAWYQQKPGRAPKLLIYDASSLESGVPSRFSGSGSGTDFTLTISSLQPEDFATYYCQQFKRYPPTFGLGTKVEIK
# B9: 1245_P02_F07 scFv (scFv)
# scFv: QVQLQQSGPGLVKPSQTLSLTCVISGDSVSSNSAAWNWIRQSPSRGLEWLGRTYYRSKWYNDYAVSVKSRITINPDTSKNQFSLQLNSVTPEDTAVYYCARDYYYSMDVWGQGTMVTVSSGGGGSGGGGSGGGASDIQMTQSPSTLSASVGDRVTITCRASQSISSWLAWYQQKPGKAPKLLIYDASSLESGVPLRFSGSGSGTEFTLTISSLQPDDFATYYCQQSHSHPPTFGPGTKVDIK
# Target: L1 (DV1-GV4) (human)
# Sequence (chain, as listed by the source, chain 1 of 2): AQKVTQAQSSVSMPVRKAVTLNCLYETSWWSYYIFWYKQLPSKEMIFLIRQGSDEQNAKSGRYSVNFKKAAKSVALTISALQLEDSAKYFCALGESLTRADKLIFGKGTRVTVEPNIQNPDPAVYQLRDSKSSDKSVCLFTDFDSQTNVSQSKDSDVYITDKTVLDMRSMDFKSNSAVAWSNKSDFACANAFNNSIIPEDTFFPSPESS
# Sequence (chain, as listed by the source, chain 2 of 2): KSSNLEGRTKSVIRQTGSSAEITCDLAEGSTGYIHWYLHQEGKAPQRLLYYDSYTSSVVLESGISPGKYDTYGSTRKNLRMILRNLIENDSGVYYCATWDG
# Assay: DELFIA affinity ranking, signal with 100 nM biotinylated L1
row,100 nM L1,Binder
1,17100,B1
2,18400,B2
3,1980,B3
4,163000,B4
5,5900,B5
6,23800,B6
7,137000,B7
8,65300,B8
9,10400,B9
